Laboratory results published in patent US20070207967A1, “Peptide Inhibitors of Matrix Metalloproteinase Activity” (CTT CANCER TARGETING TECHNOLOGIES OY, priority 2004, published 2007).

How the values were obtained:
CBD = molecular target: T1, CBD (Homo sapiens, UniProt P14780); test: Gelatin binding to immobilized CBD; settings: biotinylated gelatin
T1 construct: CBD (amino acids Gly^204-Gly^373) was amplified from MMP-9 cDNA; made in house; host or cells: E. coli
Protocol: Gelatin and CBD binding assays. Recombinant CBD or human plasma fibronectin (Calbiochem) (0.2 μg/ml in TBS) was immobilized in microtiter wells. The wells were saturated with 1% BSA-PBST. Biotinylated gelatin (0.2 μg/ml in 1% BSA-PBST) was added with or without peptides at the concentrations indicated or with an excess of unlabelled gelatin (10 μg/ml) and allowed to bind for 1 h. Bound gelatin was detected with streptavidin-peroxidase. CBD binding to immobilized fibronectin, the 110-kDa fragment of fibronectin (Upstate Biotechnology) or urea-denaturated human plasma vitronectin (17) (1 μg/well) was studied using biotinylated CBD (5 μg/ml) in 1% BSA-PBST in the presence or absence of 20 μM peptides.

pro-MMP-9 [1] = molecular target: T2, pro-MMP-9 (Homo sapiens, UniProt P14780); test: Phage binding to pro-MMP-9 with competitors; settings: competitor peptides 20 μM, gelatin 2.5 μg/ml
Protocol: Phage display. Phage display selections were made using random peptide libraries CX7-10C and X9-10 (13). Purified human pro-MMP-9 (9) or recombinant MMP-9 C domain (2 μg/ml) was immobilized on microtiter wells and the wells were blocked with BSA. The phage were added in 50 mM Hepes (pH 7.5)/5 mM CaCl2/1 μM ZnCl2/150 mM NaCl/2% BSA. After three rounds of selection the phage sequences were determined (14). The phage binding specificity was tested with pro-MMPs or the recombinant domains (20 ng/well). The phage (10^8 transducing units/well) were allowed to bind in the absence or presence of competitor peptides (20 μM), gelatin (2.5 μg/ml) or TIMP-1 (2.5 μg/ml, Calbiochem) followed by washings with PBS/0.05% Tween20 (PBST). The phage were detected with a peroxidase-conjugated anti-phage antibody (Amersham Biosciences).

trypsin-activated MMP-9 = trypsin-activated MMP-9 (Homo sapiens, UniProt P14780); test: Gelatinase inhibition assay (gelatin degradation), MMP-9; assay type: biochemical; settings: biotinylated gelatin substrate
Protocol: Gelatinase inhibition assay. Inhibition of aminophenylmercuric acetate (APMA)-activated MMP-2 and trypsin-activated MMP-9 was performed using biotinylated gelatin as a substrate (15).

MMP-9 C domain = molecular target: T3, MMP-9 C domain (Homo sapiens, UniProt P14780); test: β5 I-EGF2+3 binding assay, MMP-9 C domain
T3 construct: MMP-9 (Asp^494-Asp^688) were expressed as described (16); made in house; host or cells: E. coli (β5 fragment)
T3 sequence (P14780 513-707 limits assumed): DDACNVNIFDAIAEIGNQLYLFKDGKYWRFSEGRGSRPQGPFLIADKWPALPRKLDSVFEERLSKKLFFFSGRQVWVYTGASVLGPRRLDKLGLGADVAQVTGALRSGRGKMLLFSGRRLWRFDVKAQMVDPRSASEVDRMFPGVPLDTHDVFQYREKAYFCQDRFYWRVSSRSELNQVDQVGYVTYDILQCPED
Protocol: B5 I-EGF2+3 binding assay. MMP-9 C domain, MMP-2 C domain, CBD, β5 I-EGF2+3 or vitronectin (2 μg/ml) were immobilized in microtiter wells. Biotinylated β5 I-EGF2+3 fragment (2.5 μg/ml) was added to the wells which were preincubated with the competitors for 30 min in 1% BSA-PBST and then incubated further for one hour. Bound biotinylated protein was detected with streptavidin-peroxidase.

pro-MMP-2 = test: Pro-MMP-2 activation in HT1080 cells, zymography; assay type: cell-based, human; settings: PDBu-activated HT1080, peptides 200 μM
Protocol: (§1) Activation of MMP-9. THP-1 cells (40 000/100 μl) or confluent HT1080 cells were incubated for 16 h in the presence or absence of 2.5 μg/ml plasminogen, 0.5 μg/ml pro-MMP-3 (Oncogene Research Products), 40 nM PDBu, and the peptides at a 200 μM concentration unless otherwise indicated. Aliquots of the conditioned media were analyzed by gelatin zymography (9). […] The samples were analyzed by gelatin zymography.

pro-MMP-9 [2] = molecular target: T2, pro-MMP-9; test: Pro-MMP-9 activation in THP-1 cells, zymography; assay type: cell-based; settings: THP-1, pro-MMP-3 and plasminogen, peptides 200 μM
Protocol: as §1

THP-1 monocytic cells = test: THP-1 cell migration on GST-LLG-C4; assay type: cell-based, human; settings: GST-LLG-C4 substratum, 16 h
Protocol: Cell migration and invasion. The cell migration assay was conducted using transwell migration chambers (8 μm pore size, Costar) in 10% serum-containing medium (2,14). Briefly, the membranes were coated on both sides with 40 μg/ml GST or with the β2 integrin ligand peptide […]-GST fusion (GST-LLG-C4) and blocked with complete medium. THP-1 cells (50 000/100 μl) were preincubated with the peptides for 1 h in serum-containing medium. The cells were allowed to migrate for 16 h and were then stained with crystal violet and counted (14). The HT1080 (20 000 cells/I100 μl) invasion assay was performed as the THP-1 migration, except that matrigel coated transwells (BD Biosciences) were used.

HT1080 cells = test: Pericellular proteolysis (gelatinolysis) of HT1080 cells; assay type: cell-based, human; settings: HT1080, 48 h, PDBu, fibronectin/FITC-labelled gelatin coating
Protocol: Pericellular proteolysis. Microtiter wells were coated with a mixture of fibronectin (10 μg/ml) and FITC-labelled gelatin (100 μg/ml) followed by saturation with 1% BSA in PBS. HT1080 cells (50 000 in 100 μl 0.1% BSA/DMEM) were incubated in the presence of 20 nM PDBu (4β-phorbol-12,13-dibutyrate, SigmaAldrich) and the peptides or the MMP-2/MMP-9 selective inhibitor InhI (Calbiochem). As a control non-activated cells and medium without the cells were used. Gelatinolysis after 48 hours was measured as the increase of fluorescence from a 50 μl aliquot of the conditioned medium using Wallac Victor^2 reader.

T2 sequence (P14780 20-707 limits assumed): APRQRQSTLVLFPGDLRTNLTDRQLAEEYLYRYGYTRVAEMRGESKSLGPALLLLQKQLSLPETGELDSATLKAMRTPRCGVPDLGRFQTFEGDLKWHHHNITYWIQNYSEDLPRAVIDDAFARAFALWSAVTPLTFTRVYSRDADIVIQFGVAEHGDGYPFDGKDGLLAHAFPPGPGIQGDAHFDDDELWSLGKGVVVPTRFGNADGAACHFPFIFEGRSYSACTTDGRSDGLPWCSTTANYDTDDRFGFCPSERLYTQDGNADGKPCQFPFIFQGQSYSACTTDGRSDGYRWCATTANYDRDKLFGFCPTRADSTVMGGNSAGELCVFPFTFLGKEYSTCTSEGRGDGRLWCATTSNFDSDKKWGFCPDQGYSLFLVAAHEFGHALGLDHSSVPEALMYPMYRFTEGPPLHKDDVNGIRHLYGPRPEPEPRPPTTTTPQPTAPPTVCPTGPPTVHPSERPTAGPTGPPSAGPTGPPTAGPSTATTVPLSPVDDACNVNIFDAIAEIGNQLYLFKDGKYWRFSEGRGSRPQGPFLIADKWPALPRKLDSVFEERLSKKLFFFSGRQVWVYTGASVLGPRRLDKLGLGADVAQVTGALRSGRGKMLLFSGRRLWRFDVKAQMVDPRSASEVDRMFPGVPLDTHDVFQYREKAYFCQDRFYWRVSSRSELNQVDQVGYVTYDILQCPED
T1 sequence (P14780 223-392 limits assumed): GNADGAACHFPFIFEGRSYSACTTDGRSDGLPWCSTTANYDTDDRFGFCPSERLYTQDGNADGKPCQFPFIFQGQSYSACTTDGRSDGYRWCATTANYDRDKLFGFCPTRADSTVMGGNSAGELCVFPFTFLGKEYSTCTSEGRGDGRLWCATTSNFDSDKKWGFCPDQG
trypsin-activated MMP-9, sequence (P14780 107-707 limits assumed): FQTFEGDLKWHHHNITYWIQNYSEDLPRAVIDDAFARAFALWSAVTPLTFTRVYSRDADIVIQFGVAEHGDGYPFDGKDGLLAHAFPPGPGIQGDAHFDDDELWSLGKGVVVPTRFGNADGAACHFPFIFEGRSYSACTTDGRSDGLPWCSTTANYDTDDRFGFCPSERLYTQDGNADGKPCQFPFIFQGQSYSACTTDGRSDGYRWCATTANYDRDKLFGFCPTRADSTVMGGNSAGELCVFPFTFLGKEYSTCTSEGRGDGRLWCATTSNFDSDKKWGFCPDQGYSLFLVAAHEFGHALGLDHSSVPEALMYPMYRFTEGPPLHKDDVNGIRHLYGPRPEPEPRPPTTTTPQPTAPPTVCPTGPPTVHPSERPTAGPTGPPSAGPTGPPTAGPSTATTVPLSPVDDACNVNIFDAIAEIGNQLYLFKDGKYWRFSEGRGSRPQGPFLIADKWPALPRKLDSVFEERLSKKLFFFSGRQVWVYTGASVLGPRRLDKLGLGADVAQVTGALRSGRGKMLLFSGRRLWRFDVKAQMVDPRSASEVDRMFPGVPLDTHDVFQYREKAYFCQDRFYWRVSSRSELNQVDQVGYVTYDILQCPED

CRVYGPYLLC
Inhibition of gelatin binding to immobilized CBD (CBD): not | Binding of PPC peptide-bearing phage to pro-MMP-9, competition (pro-MMP-9 [1]): not | Binding of the CRV-phage to pro-MMP-9, competition (pro-MMP-9 [1]; TIMP-1 2.5 μg/ml): inhibited | Inhibition of MMP-9 activity in gelatin degradation assay (trypsin-activated MMP-9): did not inhibit | Competition of biotinylated β5 I-EGF2+3 binding to the MMP-9 C domain (MMP-9 C domain): inhibitable | Inhibition of activation of pro-MMP-2 (pro-MMP-2): partially | Effect on pro-MMP-9 activation (pro-MMP-9 [2]): blocked | Inhibition of THP-1 migration (THP-1 monocytic cells): inhibitory effect | Inhibition of pericellular gelatinolysis (HT1080 cells): inhibited
